Source: PMC2213112
Where two headings read alike, the source gives them in different places.

What was measured:
[1] = molecular target: Recombinant human P-selectin (recombinant ectodomain of P-selectin) (human) (UniProt P16109); assay: SPR
[2] = molecular target: P-selectin expressed on Chinese hamster ovary cells (CHO-P) (UniProt P16109); assay: flow cytometry on cells
[3] = molecular target: P-selectin expressed on Chinese hamster ovary cells (CHO-P) (UniProt P16109); assay: flow cytometry on cells; remark: listed apart in the source
[4] = molecular target: P-selectin expressed on Chinese hamster ovary cells (CHO-P) (UniProt P16109); assay: flow cytometry on cells; remark: listed apart in the source

Row | Kd [1] [µM] | increase of binding over the sample without calcium or magnesium [2] [%] | increase of binding over the sample without calcium or magnesium [3] [%] | increase of binding over the sample without calcium or magnesium [4] [%] | mean fluorescence intensity (MFI) of C3b-FITC [4] | Substance
1 | 1 | – | – | – | – | purified C3b (from UniProt P01024 749-1663; P01024 749-1663) (natural protein)
2 | – | 55 | 63 | 33 | 476 | FITC-conjugated purified C3b (from UniProt P01024 749-1663; P01024 749-1663) (natural protein)
